From US20200347144A1 (SHANGHAI HYAMAB BIOTECH, published 2020)

Columns and labels:
[1] = target: T1, monkey 4-1BB on CHOK1 cells (monkey); assay: FACS, CHOK1-c4-1BB cells; Ab 2 ug/ml
T1 construct: whole, on cells; also called CHOK1-c4-1BB
From the text: (§1) The pIRES plasmid carrying the full-length gene of monkey-derived […] (the preparation method is the same as the preparation method of the pCpC vector carrying the human-derived IgG Fc fragment (hFc) in “Preparation of immunogen A” of the step (1) in Example 1, in which the database accession number of the amino acid sequence of the extracellular region of monkey 4-1BB protein (Phe19-Thr239) is G7PSE7) was transfected into CHOK1 cell line to obtain CHOK1 stable transfected cell line containing monkey 4-1BB (herein referred to as CHOK1-c4-1BB stable cell line). The CHOK1-h4-1BB stable cell line and the CHOK1-c4-1BB stable cell line were expanded and cultivated to 90% confluence in T-75 cell culture flasks. The medium was exhausted, and washed twice with HBSS buffer (Hanks Balanced Salt Solution, purchased from Invitrogen), and then the cells were treated and collected with enzyme-free cell dissociation solution (Versene solution, purchased from Life Technology). The cells were washed twice with HBSS buffer, and after cell counting, the cells were diluted with HBSS buffer to 2×10⁶ cells per ml, and 1% goat serum blocking solution was added, the percentage being the mass percentage. It was incubated on ice for 30 minutes, and then washed twice with HBSS buffer by centrifugation. The collected cells were suspended in FACS buffer (HBSS containing 1% BSA, the percentage was the mass percentage) to 2×10⁶ cells/mL, and 100 μl per well was added to a 96-well FACS reaction plate. The purified 4-1BB antibody test sample obtained in Example 2 was added, 100 microliters per well and incubated on ice for 2 hours. […] It was washed three times with FACS buffer by centrifugation, and 100 μl of fixative [4% (v/v) paraformaldehyde] per well was added to suspend cells, and washed twice with FACS buffer after 10 minutes by centrifugation. The cells were suspended with 100 microliters of FACS buffer, and the results were detected and analyzed with FACS (FACS Calibur, purchased from BD).

[2] = target: T1, monkey 4-1BB on CHOK1 cells; assay: FACS, CHOK1-c4-1BB cells; Ab 0.08 ug/ml
From the text: as §1

[3] = target: T2, hFc-tagged human 4-1BB extracellular domain protein (4-1BB-hFc) (human, UniProt Q07011 24-186, limits assumed); assay: ELISA, coated human 4-1BB-hFc; Ab 2 ug/ml
T2 construct: also called immunogen A; 4-1BB^ECD-hFc; not shown: human IgG Fc fragment (hFc) of the pCpC vector
Procedure: (§2) The purified immunogen A (4-1BB-hFc), monkey 4-1BB-his, and mouse 4-1BB-his obtained in Example 1 [for the preparation method, see step 1 of Example 1, preparation of immunogen A], of which the extracellular domain of monkey-derived 4-1BB protein (purchased from ACRO biosystems), the extracellular domain of mouse 4-1BB protein (purchased from sino biological) or other immune detection point proteins respectively were diluted with PBS to a final concentration of 1.0 μg/mL, then added with […] per well to 96-well ELISA plate. It was sealed with plastic film and incubated at 4° C. overnight. The next day, the plate was washed twice with the plate-washing solution [PBS containing 0.01% (v/v) Tween20] and blocking solution [PBS containing 0.01% (v/v) Tween 20 and 1% (v/v) BSA] was added and blocked at room temperature for 2 hours. The blocking solution was discarded and 100 μl of the purified 4-1BB antibody obtained in Example 2 was added per well. After incubated at 37° C. for 2 hours, the plate was washed 3 times with a plate-washing solution [PBS containing 0.01% (v/v) Tween20]. A secondary antibody (purchased from Sigma) labeled with HRP (horseradish peroxidase) was added, and after incubated at 37° C. for 2 hours, the plate was washed 3 times with a plate-washing solution [PBS containing 0.01% (v/v) Tween20]. 100 μl of TMB substrate was added per well. After incubated for 30 minutes at room temperature, 100 μl of stop buffer (1.0N HCl) was added per well. The A450 nm values were read using an ELISA plate reader (SpectraMax 384plus, Molecular Device).

[4] = target: T3, human 4-1BB, full length, on transfected cells (human, UniProt Q07011 24-255); assay: FACS, CHOK1-h4-1BB cells; Ab 0.0032 ug/ml
T3 construct: whole, on cells; also called CHOK1-h4-1BB
T3 sequence (Q07011 24-255): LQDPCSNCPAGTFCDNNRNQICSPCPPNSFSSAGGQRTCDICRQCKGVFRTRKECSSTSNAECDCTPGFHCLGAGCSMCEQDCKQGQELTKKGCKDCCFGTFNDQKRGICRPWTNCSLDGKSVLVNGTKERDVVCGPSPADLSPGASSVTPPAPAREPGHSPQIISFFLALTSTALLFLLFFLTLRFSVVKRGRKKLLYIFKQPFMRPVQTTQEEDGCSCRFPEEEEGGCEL
From the text: as §1

[5] = target: T2, hFc-tagged human 4-1BB extracellular …; assay: ELISA, coated human 4-1BB-hFc; Ab 10 ug/ml
Procedure: as §2

[6] = target: T1, monkey 4-1BB on CHOK1 cells; assay: FACS, CHOK1-c4-1BB cells; Ab 0.00013 ug/ml
From the text: as §1

[7] = target: T1, monkey 4-1BB on CHOK1 cells; assay: FACS, CHOK1-c4-1BB cells; Ab 0.00064 ug/ml
From the text: as §1

[8] = target: T2, hFc-tagged human 4-1BB extracellular …; assay: ELISA, coated human 4-1BB-hFc; Ab 0.08 ug/ml
Procedure: as §2

[9] = target: T2, hFc-tagged human 4-1BB extracellular …; assay: ELISA, coated human 4-1BB-hFc; Ab 0.016 ug/ml
Procedure: as §2

[10] = target: T2, hFc-tagged human 4-1BB extracellular …; assay: ELISA, coated human 4-1BB-hFc; Ab 0.0001 ug/ml
Procedure: as §2

[11] = target: T3, human 4-1BB, full length, on …; assay: FACS on CHOK1-h4-1BB cells, Alexa 488 secondary antibody, average fluorescence intensity
From the text: as §1

[12] = target: T2, hFc-tagged human 4-1BB extracellular …; assay: ELISA: human 4-1BB-hFc coated at 1.0 µg/mL, antibody titrated, HRP secondary antibody, OD450
Procedure: as §2

Row | Binder | average fluorescence intensity [1] [MFI] | average fluorescence intensity [2] [MFI] | OD450 nm [3] [OD450 nm] | average fluorescence intensity [4] [MFI] | OD450 nm [5] [OD450 nm] | average fluorescence intensity [6] [MFI] | average fluorescence intensity [7] [MFI] | OD450 nm [8] [OD450 nm] | OD450 nm [9] [OD450 nm] | OD450 nm [10] [OD450 nm] | EC50 (read off the curve) [11] [µg/mL] | EC50 (read off the curve) [12] [µg/mL]
1 | 11H10C9 (antibody, V domains shown) VH: QVQLVESGGGVVQPGRSLRLSCAASGFTFSSYAMHWVRQAPGKGLEWVAIIWYDGSNQYYADSVKGRFTISRDNSMNTLYLQMNSLRAEDTAVYYCARVEQWLVSYFDFWGQGTLVTVSS VL: EIVMTQSPATLSVSPGERATLSCRASQSVSSNLAWYQQKPGQVPRLLIYGASTRATGIPARFSGSGSGTEFTLTISSLQSEDFAVYYCQQYNNWPTFGGGTKVEIK | 576 | 82.6 | 3.59 | 18.3 | 3.55 | 3 | 3.7 | 3.27 | 1.55 | 0.15 | ~0.1 | ~0.02
2 | 170D7F2 (antibody, V domains shown) VH: QVQLVQSGAEVKKPGASVKVSCKASGYTFTSYDINWVRQATGQGLEWMGWMNPNSGNTGYAQKFQGRVTMTRNTSISTAYMELSSLRSEDTAVYYCARETGPFDYWGQGTLVTVSS VL: DIQMTQSPSSLSASVGDRVTITCRASQRINNYLNWYQQKPGKAPKLLIYGASSLQSGVPSRFSGSGSGTDFTLTISSLQPEDFATYYCQQSYSTPFTFGPGTKVDIK | 621 | 96.3 | 3.49 | 14 | 3.44 | 2.6 | 4 | 3.24 | 1.64 | 0.13 | ~0.2 | ~0.02
3 | 182A5B3 (antibody, V domains shown) VH: QVQLVQSGAEVKKPGASVKVSCKASGYTFTSYDINWVRQATGQGLEWMGWMNPNSGNTGYVQKFQGRVTMTRNTSISTAYMELSSLRSEDTAVYYCARETGPFDYWGQGTLVTVSS VL: not shown | 712 | 118 | 3.54 | 14.8 | 3.5 | 2.7 | 4.4 | 3.29 | 1.48 | 0.13 | ~0.2 | ~0.02

The next lines start with the values.

Row | average fluorescence intensity [1] [MFI] | average fluorescence intensity [2] [MFI] | OD450 nm [3] [OD450 nm] | average fluorescence intensity [4] [MFI] | OD450 nm [5] [OD450 nm] | average fluorescence intensity [6] [MFI] | average fluorescence intensity [7] [MFI] | OD450 nm [8] [OD450 nm] | OD450 nm [9] [OD450 nm] | OD450 nm [10] [OD450 nm] | EC50 (read off the curve) [11] [µg/mL] | EC50 (read off the curve) [12] [µg/mL] | Binder
4 | 679 | 130 | 3.1 | 38.3 | 3.06 | 3.2 | 4.5 | 3.08 | 2.51 | 0.26 | ~0.05 | ~0.007 | 52F4G2 (antibody, V domains shown) VH: QVQLQESGPGLVKPSETLSLTCAVSGYSISSGYYWGWIRQPPGKGLEWIGSIFHSGSSYYNPSLKSRVTISVDTSKNQFSLKLRSVTAADTAVYYCARESSGWNCFDYWGQGTLVTVSS VL: DIQMTQSPSTLSASVGDRVTITCRASQTISTWLAWYQQKPGKAPKLLIYKASNLESGVPSRFSGSGSGTEFTLTISSLQPDDFATYYCQQYNSYSITFGQGTRLEIK
5 | 586 | 154 | 2.78 | 38.5 | 2.78 | 3.4 | 4.7 | 2.53 | 1.1 | 0.07 |  | ~0.02 | 23G3B8 (antibody, V domains shown) VH: QVQLQESGPGLVKPSETLSLTCAVSAYSISSGYYWGWIRQPPGKGLEWIGSIFHSGSNYYNPSLKSRVTISVDPSKNQFSLKLSSVTVADTAVYYCARESSGYNCFDYWGQGTLVTVSS VL: not shown
6 | 305 | 47 | 3.44 | 13 | 3.43 | 17.6 | 71.7 | 3.18 | 1.65 | 0.14 | ~0.1 | ~0.02 | 172E3E3 (antibody, V domains shown) VH: QVQLQESGPGLVKPSGTLSLTCAVSGGSISSSNWWSWVRQPPGKGLEWIGEIYHSGSTNYNPSLKSRVTISVDKSKNQLSLNLSSVTAADTAVYYCARQGGVAGTLYWYFDLWGRGTLVTVSS VL: DIVMTQSPLSLPVTPGEPASISCRSSQGLLHSNGYNYLDWYLQKPGQSPQLLIYLGSNRASGVPDRFIGSGSGTDFTLKIRRVEAEDVGVYYCMQVLQTPWTFGQGTKVEIK
7 | 688 | 114 | 2.72 | 34.4 | 2.73 | 2.9 | 4.9 | 2.26 | 0.99 | 0.43 | ~0.05 | ~0.03 | 118F3A2 (antibody, V domains shown) VH: QVQLQQWGAGLLKPSETLSLTCGVYGGSFSTNYWSWIRQSPGKGLEWIGEINHSGNTEYNPSLKSRLTISIDTSKNQFSLKLTSVTAADTAVYYCARMGYHSPSFDFWGQGVLVTVSS VL: KIVMTQSPATLSVSPGERATLPCRVSQGIGSNLAWYQQKPGQAPRLLIYGASTRATGVPARFSGSGSGSEFTLTISSLQSEDLALYYCQQYNNWPLTFGGGTKVEIK
8 | 597 | 179 | 2.77 | 26.7 | 2.8 | 3 | 5.3 | 2.73 | 1.47 | 0.07 |  | ~0.02 | 289B6G6 (antibody, V domains shown) VH: QVQLQESGPGLVRPSETLSLTCAVSGYSISSGYYWGWIRQPPGKGLEWIGSIFHSGNTYYNPSLKSRVIVSGDTSKNQFSLKLSSVTAADTAVYYCTRESSGFNVFDIWGQGTMVTVSS VL: not shown
